Assay results from FireProtDB (doi:10.1021/bi012084+).
Where “and” joins values, the source holds several entries; their conditions need not be identical. Identical values can stand only once.

B1: Glyceraldehyde-3-phosphate dehydrogenase, P00362 (parent)
chain: MAVKVGINGFGRIGRNVFRAALKNPDIEVVAVNDLTDANTLAHLLKYDSVHGRLDAEVSVNGNNLVVNGKEIIVKAERDPENLAWGEIGVDIVVESTGRFTKREDAAKHLEAGAKKVIISAPAKNEDITIVMGVNQDKYDPKAHHVISNASCTTNCLAPFAKVLHEQFGIVRGMMTTVHSYTNDQRILDLPHKDLRRARAAAESIIPTTTGAAKAVALVLPELKGKLNGMAMRVPTPNVSVVDLVAELEKEVTVEEVNAALKAAAEGELKGILAYSEEPLVSRDYNGSTVSSTIDALSTMVIDGKMVKVVSWYDNETGYSHRVVDLAAYIASKGL

Variants of: B1
Conditions: Geobacillus stearothermophilus, pH 7.5, Thermal, DSC, KH2PO4/KOH 100 mM, reversible: no, structure 1GD1, whole UniProt chain shown

Variant	unfolding enthalpy (calorimetric) (transition: 3)	unfolding enthalpy (calorimetric)	Tm (transition: 3)	Tm
Y47G R53G	214 kcal/mol and 127 kcal/mol and 180 kcal/mol	–	–	–
Y285V	–	182 kcal/mol and 397 kcal/mol and 178 kcal/mol	–	–
Y47G S49G	127 kcal/mol	–	70.2 °C and 71.2 °C	–
W312F	–	371 kcal/mol and 525 kcal/mol	–	–
D284G	–	140 kcal/mol and 148 kcal/mol and 119 kcal/mol	–	–
T36Q T40S L44Q	215 kcal/mol and 127 kcal/mol	215 kcal/mol and 176 kcal/mol	–	64.8 °C and 66.8 °C
N315T	–	138 kcal/mol	65.5 °C	62.3 °C
